Experimental data published in article PMC6877725, “Identification of the periplasmic DNA receptor for natural transformation of Helicobacter pylori”.

Key:
ComH-His6 [1] = target: T1, ComH-His6 (Helicobacter pylori 26695, UniProt O26055 20-479); assay: SV-AUC; conditions: EMSA: 10 mM Tris-HCl pH 7.5, 50 mM KCl, ~100 mM NaCl, 0.1 mM MgCl2, 1 mM DTT, 0.1 µg/µl BSA, on ice 30 min; MST and SV-AUC (20 °C): 50 mM Tris-HCl pH 7.4 …
T1 sequence: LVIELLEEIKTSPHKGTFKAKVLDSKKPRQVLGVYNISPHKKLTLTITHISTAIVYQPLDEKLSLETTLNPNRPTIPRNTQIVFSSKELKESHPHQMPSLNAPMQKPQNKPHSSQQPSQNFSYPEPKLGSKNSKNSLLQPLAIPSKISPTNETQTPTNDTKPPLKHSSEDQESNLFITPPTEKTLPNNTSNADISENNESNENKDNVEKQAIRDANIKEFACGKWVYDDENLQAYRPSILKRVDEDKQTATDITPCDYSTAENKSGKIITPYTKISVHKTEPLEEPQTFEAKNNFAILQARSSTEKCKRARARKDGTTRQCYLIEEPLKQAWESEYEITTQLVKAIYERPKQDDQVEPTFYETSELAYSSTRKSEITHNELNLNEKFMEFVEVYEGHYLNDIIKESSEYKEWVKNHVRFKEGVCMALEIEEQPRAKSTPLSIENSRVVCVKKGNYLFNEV

ComH-NTD-His6 [2] = target: T2, ComH-NTD-His6 (Helicobacter pylori 26695, UniProt O26055 20-169); assay: MST; conditions: 10 mM MgCl2, 150 mM NaCl; EMSA: 10 mM Tris-HCl pH 7.5, 50 mM KCl, ~100 mM NaCl, 0.1 mM MgCl2, 1 mM DTT, 0.1 µg/µl BSA, on ice 30 min; MST and SV-AUC (20 °C): 50 mM Tris-HCl pH 7.4 …
T2 sequence: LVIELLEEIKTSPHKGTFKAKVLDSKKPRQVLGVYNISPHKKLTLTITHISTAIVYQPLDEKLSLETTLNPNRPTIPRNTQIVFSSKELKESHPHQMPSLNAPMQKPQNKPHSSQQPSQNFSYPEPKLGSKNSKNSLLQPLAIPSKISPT

ComH-CTD-His6 [3] = target: T3, ComH-CTD-His6 (Helicobacter pylori 26695, UniProt O26055 170-479); assay: MST; conditions: 10 mM MgCl2, 150 mM NaCl; EMSA: 10 mM Tris-HCl pH 7.5, 50 mM KCl, ~100 mM NaCl, 0.1 mM MgCl2, 1 mM DTT, 0.1 µg/µl BSA, on ice 30 min; MST and SV-AUC (20 °C): 50 mM Tris-HCl pH 7.4 …
T3 sequence: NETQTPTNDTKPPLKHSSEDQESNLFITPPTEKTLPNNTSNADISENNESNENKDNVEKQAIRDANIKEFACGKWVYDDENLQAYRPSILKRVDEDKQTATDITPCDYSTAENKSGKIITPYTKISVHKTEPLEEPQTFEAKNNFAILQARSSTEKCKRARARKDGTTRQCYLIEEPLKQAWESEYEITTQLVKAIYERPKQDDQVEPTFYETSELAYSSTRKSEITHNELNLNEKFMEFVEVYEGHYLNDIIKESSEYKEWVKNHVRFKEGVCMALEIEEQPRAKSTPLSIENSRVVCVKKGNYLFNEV

ComH-His6 [4] = target: T1, ComH-His6; assay: MST; conditions: 10 mM MgCl2, 150 mM NaCl; EMSA: 10 mM Tris-HCl pH 7.5, 50 mM KCl, ~100 mM NaCl, 0.1 mM MgCl2, 1 mM DTT, 0.1 µg/µl BSA, on ice 30 min; MST and SV-AUC (20 °C): 50 mM Tris-HCl pH 7.4 …
ComH-His6 [5] = target: T1, ComH-His6; assay: SV-AUC; conditions: EMSA: 10 mM Tris-HCl pH 7.5, 50 mM KCl, ~100 mM NaCl, 0.1 mM MgCl2, 1 mM DTT, 0.1 µg/µl BSA, on ice 30 min; MST and SV-AUC (20 °C): 50 mM Tris-HCl pH 7.4 …; remark: listed apart in the source
ComH-CTD-His6 [6] = target: T3, ComH-CTD-His6; assay: EMSA; essentially no affinity, 0.5-2 µM protein; EMSA: 10 mM Tris-HCl pH 7.5, 50 mM KCl, ~100 mM NaCl, 0.1 mM MgCl2, 1 mM DTT, 0.1 µg/µl BSA, on ice 30 min; MST and SV-AUC (20 °C): 50 mM Tris-HCl pH 7.4, 150 mM NaCl, 10 mM MgCl2, 0.05% Tween20; SPR: PBS + 0.005% Tween20, 25 °C; conditions: protein: recombinant; tags: C-terminal His6; label: 5'-Cy5
ComH-NTD-His6 [7] = target: T2, ComH-NTD-His6; assay: EMSA; basically no binding, 0.5-2 µM protein; EMSA: 10 mM Tris-HCl pH 7.5, 50 mM KCl, ~100 mM NaCl, 0.1 mM MgCl2, 1 mM DTT, 0.1 µg/µl BSA, on ice 30 min; MST and SV-AUC (20 °C): 50 mM Tris-HCl pH 7.4, 150 mM NaCl, 10 mM MgCl2, 0.05% Tween20; SPR: PBS + 0.005% Tween20, 25 °C; conditions: protein: recombinant, tags: C-terminal His6
ComH-His6 [8] = target: T1, ComH-His6; assay: EMSA; 0.5-2 µM protein; EMSA: 10 mM Tris-HCl pH 7.5, 50 mM KCl, ~100 mM NaCl, 0.1 mM MgCl2, 1 mM DTT, 0.1 µg/µl BSA, on ice 30 min; MST and SV-AUC (20 °C): 50 mM Tris-HCl pH 7.4, 150 mM NaCl, 10 mM MgCl2, 0.05% Tween20; SPR: PBS + 0.005% Tween20, 25 °C; conditions: protein: recombinant, tags: C-terminal His6
ComH-CTD-His6 [9] = target: T3, ComH-CTD-His6; assay: as above; conditions: protein: recombinant; tags: C-terminal His6; label: 5'-Cy5 on strand 1; blunt
ComH-His6 [10] = target: T1, ComH-His6; assay: SPR; no satisfactory fit; EMSA: 10 mM Tris-HCl pH 7.5, 50 mM KCl, ~100 mM NaCl, 0.1 mM MgCl2, 1 mM DTT, 0.1 µg/µl BSA, on ice 30 min; MST and SV-AUC (20 °C): 50 mM Tris-HCl pH 7.4, 150 mM NaCl, 10 mM MgCl2, 0.05% Tween20; SPR: PBS + 0.005% Tween20, 25 °C; conditions: protein: recombinant; tags: C-terminal His6; label: 5'-biotin on strand 1; blunt
[11] = label: 5'-Cy5 on strand 1, blunt

18 bp dsDNA-FAM
Kd (ComH-His6 [1]): 100 nM
Kd (ComH-NTD-His6 [2]): > 40000 nM
Kd (ComH-CTD-His6 [3]): 3400 nM
Kd (ComH-His6 [4]): 50 nM
Kd (ComH-His6 [5]): 300 nM

B1: 18-mer ssDNA (Cy5-PNK1) (ssDNA)
DNA: TAGCATCGATCAGTCCTC
binding result (ComH-CTD-His6 [6]): no binding
binding result (ComH-NTD-His6 [7]; label: 5'-Cy5): no binding
binding result (ComH-His6 [8]; label: 5'-Cy5): no binding

B2: 18 bp dsDNA (Cy5-PNK1 + cPNK1) (dsDNA)
DNA 1: TAGCATCGATCAGTCCTC
DNA 2: GAGGACTGATCGATGCTA
binding result (ComH-NTD-His6 [7]; [11]): no binding
binding result (ComH-CTD-His6 [9]): binds
binding result (ComH-His6 [8]; [11]): binds

B3: 50 bp dsDNA (Op249 + Op250) (dsDNA)
DNA 1: GTAGTGCTGTAGGAGAATATACGGGCTGCTCGTGTTGACAAGTACTGATG
DNA 2: CATCAGTACTTGTCAACACGAGCAGCCCGTATATTCTCCTACAGCACTAC
binding result (ComH-His6 [10]): binds
